Measurements taken from article PMC4764565, “Synergistic integration of Netrin and ephrin axon guidance signals by spinal motor neurons” (eLife, 2015).

Target: T1, EphB2-GFP (mouse, UniProt P54763 19-986)
T1 construct: ephrin receptor EphB2 (plasmid Ephb2-GFP, Kao et al., 2009); also called EphB2 fused to GFP; wild-type EphB2-GFP; source: HEK293 (ATCC CRL 1573), transfected (calcium phosphate), in lysate
T1 sequence (looked up): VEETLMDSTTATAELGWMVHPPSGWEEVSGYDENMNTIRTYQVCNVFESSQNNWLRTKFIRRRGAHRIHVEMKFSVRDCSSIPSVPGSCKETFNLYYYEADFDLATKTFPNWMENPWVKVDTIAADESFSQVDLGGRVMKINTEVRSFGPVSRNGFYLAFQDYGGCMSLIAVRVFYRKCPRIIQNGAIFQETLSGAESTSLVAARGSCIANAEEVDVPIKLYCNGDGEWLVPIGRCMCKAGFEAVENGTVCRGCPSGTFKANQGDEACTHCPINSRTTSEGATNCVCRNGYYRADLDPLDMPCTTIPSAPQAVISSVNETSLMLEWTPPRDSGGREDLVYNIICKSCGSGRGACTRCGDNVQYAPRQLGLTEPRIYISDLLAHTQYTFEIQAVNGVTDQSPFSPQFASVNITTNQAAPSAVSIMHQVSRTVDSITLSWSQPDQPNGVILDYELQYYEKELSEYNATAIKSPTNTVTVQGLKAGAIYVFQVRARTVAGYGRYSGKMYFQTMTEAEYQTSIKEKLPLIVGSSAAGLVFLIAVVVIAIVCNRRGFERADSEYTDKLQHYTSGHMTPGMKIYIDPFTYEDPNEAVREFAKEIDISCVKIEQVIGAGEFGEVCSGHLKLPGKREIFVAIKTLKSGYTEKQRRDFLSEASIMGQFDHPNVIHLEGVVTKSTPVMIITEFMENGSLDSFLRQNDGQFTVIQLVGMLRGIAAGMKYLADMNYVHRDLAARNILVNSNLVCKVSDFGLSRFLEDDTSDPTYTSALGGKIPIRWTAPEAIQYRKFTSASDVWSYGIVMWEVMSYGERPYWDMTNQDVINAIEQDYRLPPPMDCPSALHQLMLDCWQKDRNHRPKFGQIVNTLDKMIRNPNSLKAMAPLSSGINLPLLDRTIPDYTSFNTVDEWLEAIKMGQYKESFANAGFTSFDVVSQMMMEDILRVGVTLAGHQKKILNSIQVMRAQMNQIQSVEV
Assay: co-IP; anti-GFP antibody on ProteinA/G agarose, overnight, pre-cleared lysates of co-transfected HEK293 cells (10mM Tris-Cl pH 8, 137 mM NaCl, 2mM EDTA, 1% NP40); blot for Myc; in the ligand experiments cells were starved 2 hr in OPTIMEM and incubated 15 min at 37°C with pre-clustered Fc, eB2-Fc or eA3-Fc (1.5 μg/ml), Netrin-1 (250 ng/ml) or eB2-Fc+Netrin-1 before lysis
Conditions: partners not purified

B1: Unc5c-Myc (receptor)
chain: not shown
notes: Netrin receptor Unc5c, mouse (plasmid mUnc5c-Myc, gift of Franck Polleux); also called mUnc5c-Myc; source: HEK293 (ATCC CRL 1573), transfected (calcium phosphate), in lysate
- fold increase of the association after pre-incubation with eB2-Fc (against Fc): ~22 fold
